Assay results published in patent US20210052630A1, “Methods and Compositions for Preventing or Treating Heart Disease” (Macau University of Science and Technology, priority 2019, published 2021).

B1: GCGGAUGUAGCCAAGUGGAUCAAGGCAGUGGAUUGUGAAUCCACCAUGCGCGGGUUCAAUUCCCGUCGUUCGCCCCA (nucleic acid)
chain: GCGGAUGUAGCCAAGUGGAUCAAGGCAGUGGAUUGUGAAUCCACCAUGCGCGGGUUCAAUUCCCGUCGUUCGCCCCA
modifications: expressed or natural sequence
notes: tRNA isolated from Panax ginseng C; A. Mey; 77 mer
B2: CGCGGAGUAGAGCAGUUUGGUAGCUCGCAAGGCUCAUAACCUUGAGGUCACGGGUUCAAAUCCUGUCUCCGCAACCA (nucleic acid)
chain: CGCGGAGUAGAGCAGUUUGGUAGCUCGCAAGGCUCAUAACCUUGAGGUCACGGGUUCAAAUCCUGUCUCCGCAACCA
modifications: expressed or natural sequence
notes: as for B1
B3: GCGGAUAUAGUCGAAUGGUAAAAUUUCUCUUUGCCAAGGAGAAGACGCGGGUUCGAUUCCCGCUAUCCGCCCCA (nucleic acid)
chain: GCGGAUAUAGUCGAAUGGUAAAAUUUCUCUUUGCCAAGGAGAAGACGCGGGUUCGAUUCCCGCUAUCCGCCCCA
modifications: expressed or natural sequence
notes: tRNA isolated from Panax ginseng C; A. Mey; 74 mer

What was measured:
Assay type in all cases: cell-based, Rat
H9C2 cells [1] = assay: MTT cell viability assay, H9C2 cells exposed to hypoxia/reoxygenation (H/R) injury; conditions: for cell viability (growth and proliferation of cardiomyocytes) under hypoxia/reoxygenation: 50 nM RNA, vs H/R group, FIG. 3B; for cardioprotective effect (cell viability), concentration series: 100, 50, 25, 12.5 nM, FIG. 4A/4B
Procedure: (§1) H9C2 cell lines were cultured in Dulbecco's Modified Eagle Medium (DMEM) containing 10% FBS and 1% penicillin/streptomycin at humidified atmosphere containing 5% CO2 at 37° C.
In the cell viability assay or mitochondrial viability assay, exponentially growing cells of H9C2 cell line were plated in 96-well microplate at a density of 5000 cells per well in 100 μL of culture medium and allowed to adhere for 24 h before treatment. For hypoxia, hypoxic treatment was achieved by exposing cells to KRB buffer (composition in: NaCl 115 mM, KCl 4.7 mM, CaCl2 2.5 mM, KH2PO4 1.2 mM, MgSO4 1.2 mM, NaHCO3 24 mM, HEPES 10 mM; pH 7.4) at 37° C. for 3 hr in an oxygen-free hypoxic chamber (Stem Cell Technologies, United States), serial concentrations of RNA molecules obtained in Example 1 were then added to the cells […]. For hypoxia/reoxygenation (H/R), Hypoxic treatment was achieved by exposing cells in glucose-free DMEM under conditions of 94.9% N2/5% CO2/0.1% O2 for 12 hr at a hypoxystation (whitley H35 hypoxystation, Don Whitley Scientific Ltd., England), serial concentrations of RNA molecules obtained in Example 1 and 2 were then added to the cells and reoxygenation by incubating in the normoxic condition (95% air/5% CO2) at 37° C. for 6 hr. After hypoxia or hypoxia/reoxygenation, MTT solution (100 μL per well, 0.5 mg/mL solution) or mitochondrial viability stain solution (follow the manufacture's instruction) was added to each well and incubated for 4 h at 37° C. Subsequently, for cell viability assay, 150 μL dimethyl sulfoxide (DMSO) were added and the optical densities of the resulting solutions were calorimetrically determined at 570 nm using a SpectraMax Paradigm multi-mode microplate reader (Molecular Devices, Sunnyvale, Calif., U.S.A). For mitochondrial viability assay, fluorescence detected at 550 nm excitation and 590 nm emission using SpectraMax Paradigm multi-mode microplate reader. Dose-response curves were obtained and calculated by GraphPad Prism 6 (GraphPad, La Jolla, Calif., USA). Each experiment was carried out for three times and expressed as means±standard deviation.

H9C2 cells [2] = assay: Mitochondrial viability assay, H9C2 cells exposed to hypoxia/reoxygenation (H/R) injury; conditions: 300, 100, 30, 3 nM (FIG. 7A/7B)
Procedure: as §1
(§2) In the cell viability assay or mitochondrial viability assay, exponentially growing cells of H9C2 cell line were plated in 96-well microplate at a density of 5000 cells per well in 100 μL of culture medium and allowed to adhere for 24 h before treatment. […] Subsequently, for cell viability assay, 150 μL dimethyl sulfoxide (DMSO) were added and the optical densities of the resulting solutions were calorimetrically determined at 570 nm using a SpectraMax Paradigm multi-mode microplate reader (Molecular Devices, Sunnyvale, Calif., U.S.A). For mitochondrial viability assay, fluorescence detected at 550 nm excitation and 590 nm emission using SpectraMax Paradigm multi-mode microplate reader. Dose-response curves were obtained and calculated by GraphPad Prism 6 (GraphPad, La Jolla, Calif., USA). Each experiment was carried out for three times and expressed as means±standard deviation.

H9C2 cell cytoskeleton = assay: Cytoskeleton imaging (Rhodamine Phalloidin/DAPI, confocal) of H9C2 cells after H/R injury; conditions: 900, 300, 100, 30, 10, 3, 0.3 nM, FIG. 8A/8B
Procedure: H9C2 cells were plated in p-slide 8 well plate (Ibidi GmbH, Germany) at a density of 10000 cells per well in 200 μL of culture medium and allowed to adhere for 24 h before treatment. Hypoxic treatment was achieved by exposing cells in glucose-free DMEM under conditions of 94.9% N2/5% CO2/0.1% O2 for 12 hr at a hypoxystation (whitley H35 hypoxystation, Don Whitley Scientific Ltd., England), serial concentrations of RNA molecules obtained in Example 2 were then added to the cells and reoxygenation by incubating in the normoxic condition (95% air/5% CO2) at 37° C. for 6 hr. After hypoxia/reoxygenation, cells were stained with Rhodamine Phalloidin and DAPI following the manufacturer's instruction. Images were acquired on a Leica TCS SP8 Confocal Microscopy with a 20× objective.

H9C2 cells [3] = assay: MTT cell viability assay, H9C2 cells under H/R injury, RNA transfected with DharmaFECT4; conditions: 300, 100, 30 nM, vs H/R+DharmaFECT4 group, FIG. 11A/11B
Procedure: FIG. 11A is a bar chart showing the cell viability of H9C2 cells exposed to hypoxia/reoxygenation (H/R) injury after treatment with RNA molecule HC50 at different concentrations, i.e. 300 nM, 100 nM and 30 nM, by transfected with DharmaFECT4 transfection reagent, compared to a control group, a H/R along with DharmaFECT4 treated group in accordance with an example embodiment (mean±SD n=3; **, p<0.01, vs. vehicle H/R+ DharmaFECT4; ####, p<0.0001 vs. vehicle control). […]
as §2

H9C2 cell line = assay: MTT cell viability assay, H9C2 cells exposed to hypoxia injury; conditions: 300 nM RNA, H9C2, hypoxia 3 hr, vs hypoxia group, FIG. 3A

Molecule	cell viability (growth and proliferation of cardiomyocytes) under hypoxia/reoxygenation (H9C2 cells [1]; H9C2, H/R)	cardioprotective effect (cell viability), concentration series (H9C2 cells [1]; H9C2, H/R)	cell viability (growth and proliferation of cardiomyocytes) under hypoxia (H9C2 cell line)	other results
HC50: double-stranded RNA, sense SEQ ID NO: 2 and antisense SEQ ID NO: 234, 19 base pairs (sense GCGGAUGUAGCCAAGUGGA; antisense UCCACUUGGCUACAUCCGC; cholesterol-conjugated double-stranded RNA, conjugate position not given here)				cell viability (growth and proliferation of cardiomyocytes), screen of synthesized RNA molecules (H9C2 cells [1]; 300 nM, H9C2, H/R, FIG. 5A/5B): effective in promoting the growth and proliferation of cardiomyocytes; cell viability, protective effect against H/R injury, concentration series (H9C2 cells [1]; 900, 300, 30, 3, 0.3 nM, H9C2, FIG. 6A/6B): dose-dependent protective effect against hypoxia/reoxygenation (H/R) injury; mitochondrial viability, protective effect against H/R injury, concentration series (H9C2 cells [2]): dose-dependent protective effect against hypoxia/reoxygenation (H/R) injury; protective effect on cytoskeleton destruction (H9C2 cell cytoskeleton): significantly relieve cytoskeleton destruction of H9C2 cells caused by hypoxia/reoxygenation (H/R) injury in a dose-dependent manner; cell viability (growth and proliferation of cardiomyocytes), transfected with DharmaFECT4 (H9C2 cells [3]): promoted the growth and proliferation of cardiomyocytes against hypoxia/reoxygenation (H/R) injury in a dose-dependent manner
B1	capable to promote the growth and proliferation of cardiomyocytes	significant cardioprotective effects in a dose-dependent manner		
B2			capable to promote the growth and proliferation of cardiomyocytes	
B3	capable to promote the growth and proliferation of cardiomyocytes	significant cardioprotective effects in a dose-dependent manner	capable to promote the growth and proliferation of cardiomyocytes	
